Tested on: CC(C)=CCC/C(C)=C/CC/C(C)=C/CC/C(C)=C/COP(=O)(O)OP(=O)(O)O
Experiment: purified protein
Conditions: 50 mM HEPES pH 7.0, 100 mM KCl, 0.1 mM MgCl2, 10% glycerol, 30 °C, 1-25 µM GGPP, 30 s, product (-)-kolavenyl diphosphate

SdKPS (Tr-SdKPS) (Salvia divinorum)
Km: 1.9 ± 0.66 µM
kcat: 0.88 ± 0.11 s⁻¹

From publication PMC5441855
